Drawing on publication PMC12207370, “Macrocyclic Peptide Probes for Immunomodulatory Protein CD59: Potent Modulators of Bacterial Toxin Activity and Antibody‐Dependent Cytotoxicity” (Angewandte Chemie (International Ed. in English), 2025), this text covers ratio to parent and other: pKD (-Log10(KD)) for ten molecules.

The assay concerns the target T1, CD59 (immobilized for SPR), P13987.
T1 chain: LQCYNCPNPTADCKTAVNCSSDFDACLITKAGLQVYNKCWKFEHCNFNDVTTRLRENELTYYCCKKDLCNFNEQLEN
Kind of assay: SPR. The settings on record: chain shown with the change, n = 1; for other: pKD (-Log10(KD)): parent: est. 8.0, read off a plot.

B1: CP-06 N7A (peptide)
chain: YSWTWGARSSVRGC
B1: the ratio to parent turned out to be 19 and the other: pKD (-Log10(KD)) is 6.7.

B2: CP-06 G6A (peptide)
chain: YSWTWANRSSVRGC
On to B2, for which the ratio to parent stood at 21 and the other: pKD (-Log10(KD)) came out at 6.7.

B3: CP-06 S2A (peptide)
chain: YAWTWGNRSSVRGC
Turning to B3, the other: pKD (-Log10(KD)) was found to be 7.9.

B4: CP-06 W5A (peptide)
chain: YSWTAGNRSSVRGC
In the case of B4, the ratio to parent came to 19 and the other: pKD (-Log10(KD)) is 6.7.

B5: CP-06 S9A (peptide)
chain: YSWTWGNRASVRGC
For the molecule B5, the other: pKD (-Log10(KD)) was found to be 7.7.

B6: CP-06 S10A (peptide)
chain: YSWTWGNRSAVRGC
Regarding B6, the other: pKD (-Log10(KD)) was determined as 8.

B7: CP-06 R8A (peptide)
chain: YSWTWGNASSVRGC
Consider B7, for which the other: pKD (-Log10(KD)) amounted to 7.8.

B8: CP-06 V11A (peptide)
chain: YSWTWGNRSSARGC
As for B8, the other: pKD (-Log10(KD)) worked out at 7.6.

B9: CP-06 T4A (peptide)
chain: YSWAWGNRSSVRGC
B9: the other: pKD (-Log10(KD)) is 7.8.

B10: CP-06 R12A (peptide)
chain: YSWTWGNRSSVAGC
B10: the other: pKD (-Log10(KD)) was found to be 7.1.
